Measured values from patent US11078259B2, “Methods and compositions for promoting thermogenic potential” (Joslin Diabetes Center, Inc., priority 2015, dated 2021).

What was measured:
[1] = system: hBAT-SVF clones; assay: Clonal analysis: UCP1-luciferase response to BMP7 pretreatment; format: cell-based, human
Experimental: (§1) FIG. 8 depicts clonal analysis of human brown and white fat progenitors. Specifically, the strategy of clonal analysis of hWAT-SVF and hBAT-SVF progenitors is shown as a dendrogram. 152 clones from hWAT-SVF and 128 clones from hBAT-SVF were derived by limiting dilution from 4 subjects. Adipogenic capacity was determined by Nile red staining and UCP1 level was determined by luciferase activity on day 18. Detailed selection criteria are described in FIGS. 9 and 10. Selected highly adipogenic clones (adipogenic++) were pre-treated with 3.3 nM BMP7 for 6 days and then differentiated into mature adipocytes in a 96-well plate. Luciferase activity was measured on day 18 and divided into different levels (negative, Neg; low; medium, Med; high) after normalized to protein content. The positive response (+) to BMP7 pretreatment was defined by more than 1.5-fold increase of luciferase activity between BMP7-pretreated and vehicle groups.
(§2) Immortalized progenitor cells were plated and grown in DMEM/H medium supplemented with 10% FBS (day 0). For adipocyte differentiation, cell were grown for 6 days until reaching confluence (day 6), and then treated with the adipogenic induction medium as described above for 12 days (termed as day 18). To further stimulate thermogenic program, fully differentiated cells were incubated with 10 μM forskolin for 4 h. For BMPs and FGF21 pre-treatment, recombinant BMP7 (3.3 nM), BMP8 (3.3 nM), or FGF21 (50 nM) were added to undifferentiated cells in medium containing insulin (0.5 μM), T3 (2 nM) and 2% FBS for 6 days followed by adipogenic induction for 12 days. For BMPs and FGF21 post-treatment, fully differentiated adipocytes at day 18 were treated with recombinant BMP7 (3.3 nM), BMP8 (3.3 nM), or FGF21 (50 nM) in medium containing insulin (0.5 μM), T3 (2 nM) and 2% FBS for 2 days.
(§3) In vitro luciferase assays were performed using luciferase assay kits (Promega, Madison, Wis.) according to the manufacturer's instructions. Remove culture medium from differentiated adipocytes and wash cells in PBS. Dispense an appropriate volume of 1× lysis reagent (Passive Lysis Buffer) into each culture well. Scrape attached cells from the wells, and transfer the cell lysates into white 96-well plate (Corning Inc., Tewksbury, Mass.) for detection of the bioluminescence signal using luminometer plate reader (BioTek Instruments, Inc., Winooski, Vt.). Use a reagent injector to dispense 100 μL of Luciferase assay buffer with substrate and 100 μL of Stop & Glo Reagent. And perform a 2-second pre-measurement delay, followed by a 10-second measurement period for each reporter assay. Luciferase activity data were normalized to protein content.
(§4) To derive subclones of immortalized human white and brown progenitors with hUCP1-promoter-Luc/GFP reporter, limiting dilution of cells into 96-well plates was performed as previously described (Tchkonia, T., et al. Diabetes 55, 2571-2578, 2006). Briefly, cells were plated at 50 cells/96-well plate in DMEM/H containing 10% FBS. After 2 weeks, colonies were evident. Cells at approximately 80% confluence were trypsinized and further propagated in 48-well, then 12-well and finally 6-well plate. 152 clonal lines originated from neck superficial fat depot and 128 clonal lines from deep fat were selected for adipogenic potential after induction. The highly adipogenic clonal lines were selected for further analysis (67 clonal white fat progenitor lines; 90 clonal brown fat progenitor lines).

[2] = system: hWAT-SVF clones; assay: as above; format: cell-based, human; conditions: for clones UCP1(+), BMP7 Resp(+) / clones UCP1 (−), BMP7 Resp(+) / clones UCP1(−), BMP7 Resp(−): hWAT-SVF clones
Experimental: as §1, §2, §3, §4

B1: BMP7: Recombinant human BMP7, an inducer of brown adipogenesis (protein, UniProt P18075 293-431, looked up)
Bone morphogenetic protein 7: STGSKQRSQNRSKTPKNQEALRMANVAENSSSDQRQACKKHELYVSFRDLGWQDWIIAPEGYAAYYCEGECAFPLNSYMNATNHAIVQTLVHFINPETVPKPCCAPTQLNAISVLYFDDSSNVILKKYRNMVVRACGCH
[1]; hBAT-SVF clones from Subject 2 and Subject 3
  clones that could respond to BMP7 stimulation: more than 60%
[1]; hBAT-SVF clones, Subject 1
  clones UCP1(+), BMP7 Resp(+): 10/41
  clones UCP1(+), BMP7 Resp(−): 29/41
  clones UCP1(+), BMP7 Resp(−), percent: (71%)
  clones UCP1(−), BMP7 Resp(−): 2/41
[1]; hBAT-SVF clones, Subject 2
  clones UCP1(+), BMP7 Resp(+): 10/15
  clones UCP1(+), BMP7 Resp(+), percent: (67%)
  clones UCP1(+), BMP7 Resp(−): 5/15
  clones UCP1(−), BMP7 Resp(−): 0/15
[1]; hBAT-SVF clones, Subject 3
  clones UCP1(+), BMP7 Resp(+): 9/15
  clones UCP1(+), BMP7 Resp(+), percent: (60%)
  clones UCP1(+), BMP7 Resp(−): 3/15
  clones UCP1(−), BMP7 Resp(−): 3/15
[1]; hBAT-SVF clones, Subject 4
  clones UCP1(+), BMP7 Resp(+): 5/19
  clones UCP1(+), BMP7 Resp(−): 14/19
  clones UCP1(+), BMP7 Resp(−), percent: (74%)
  clones UCP1(−), BMP7 Resp(−): 0/19
[1]; hBAT-SVF clones, all subjects, response = more than 1.5-fold increase of luciferase activity
  clones that could be induced by BMP7 pretreatment: up to 37%
[1]; majority of the hBAT-SVF clones from Subject 1 and Subject 4
  response to BMP7 pretreatment: not responsive
[2]; Subject 1
  clones UCP1(+), BMP7 Resp(+): 0/32
  clones UCP1 (−), BMP7 Resp(+): 0/32
  clones UCP1(−), BMP7 Resp(−): 32/32
[2]; Subject 2
  clones UCP1(+), BMP7 Resp(+): 0/20
  clones UCP1 (−), BMP7 Resp(+): 0/20
  clones UCP1(−), BMP7 Resp(−): 20/20
[2]; Subject 3
  clones UCP1(+), BMP7 Resp(+): 1/12
  clones UCP1 (−), BMP7 Resp(+): 0/12
  clones UCP1(−), BMP7 Resp(−): 11/12
[2]; Subject 4
  clones UCP1(+), BMP7 Resp(+): 0/3
  clones UCP1 (−), BMP7 Resp(+): 0/3
  clones UCP1(−), BMP7 Resp(−): 3/3
[2]; highly adipogenic hWAT-SVF clones, response = more than 1.5-fold increase of luciferase activity
  clones that could respond to BMP7 pretreatment: 1%
